Data as given in patent publication US20180207294A1, “NON-ALCOHOLIC FATTY LIVER REGULATING FACTOR 14-3-3 PROTEIN” (Korea University Research and Business Foundation, priority 2015, published 2018).
Substitutions are numbered along the chain they refer to.

How the values were obtained:
[1] = target: T1, PPARγ2 (Homo sapiens, UniProt P37231); assay: aP2 promoter luciferase assay of PPARγ2 transcriptional activity in HEK-293T cells; type: cell-based
T1 construct: host or cells: HEK-293T
T1 sequence (P37231 1-505): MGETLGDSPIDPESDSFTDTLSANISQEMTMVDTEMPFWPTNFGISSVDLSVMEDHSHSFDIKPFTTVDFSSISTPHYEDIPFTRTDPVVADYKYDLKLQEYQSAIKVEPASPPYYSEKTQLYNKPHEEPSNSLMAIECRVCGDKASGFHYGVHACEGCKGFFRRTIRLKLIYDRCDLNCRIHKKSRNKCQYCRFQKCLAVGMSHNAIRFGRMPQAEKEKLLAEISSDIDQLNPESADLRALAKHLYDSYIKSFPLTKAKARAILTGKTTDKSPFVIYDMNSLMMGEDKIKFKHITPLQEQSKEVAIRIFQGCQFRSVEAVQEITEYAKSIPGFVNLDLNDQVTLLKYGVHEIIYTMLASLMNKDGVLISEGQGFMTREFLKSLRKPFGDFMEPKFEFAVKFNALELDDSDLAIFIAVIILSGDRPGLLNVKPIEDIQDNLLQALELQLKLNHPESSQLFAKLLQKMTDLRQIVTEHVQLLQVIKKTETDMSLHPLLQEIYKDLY
Procedure: The transcriptional activity of PPARγ2 plays a vital role in expression of liver diseases-associated proteins. Thus, the transcriptional activity of PPARγ2 was measured using an aP2 promoter regulated by PPARγ2, and the role of 7 types of 14-3-3 proteins was investigated.
For this, HEK-293T cells were seeded in a 12-well plate at a density of 1×10^5 cells per each well, and then transfected with an aP2 promoter construct (0.5 μg) and 14-3-3 isoform proteins (α, β, γ, ε, ζ, π, θ) (0.5 μg) or si-14-3-3β and si-14-3-3γ siRNA (5 nM and 10 nM, Santa Cruz) using an E-fection plus reagent (Lugen). A ratio of DNA to the E-fection plus reagent was 1:2, and this method was performed according to a manufacturer's manual. After transfection, the corresponding cells were treated with 10 μM of pioglitazone (Pio, Santa Cruz) for 24 hours, washed with ice-cold PBS, and lysed using 80 μl/well of a reporter lysis buffer (Promega, Madison, Wis.), and the lysed cells were centrifuged at 10,000×g and 4° C. for 10 minutes to collect a supernatant, and luciferase activity was measured. As an instrument, Luminometer 20/20n (Turner Biosystems, Sunnyvale, Calif.) was used. For normalization, the cells were cotransfected with pSV40-β-galactosidase. For the collected supernatant, β-galactosidase activity was measured and the luciferase activity was revised, and the obtained values were plotted. At this time, a β-galactosidase enzyme analysis system (Promega, Madison, Wis.) was used, and analysis was performed using a DU530 spectrophotometer (Beckman Instruments, Palo Alto, Calif.).

[2] = target: T2, PPARγ2 S273A mutant (Homo sapiens, UniProt P37231, S273A); assay: GST-pull down assay with PPARγ2 S112A and S273A mutants (HEK-293T); type: binding; details: FIG. 4A, 4B
T2 construct: expressed in transfected cells; host or cells: HEK-293T
T2 sequence (P37231 1-505 S273A): T1 sequence (P37231 1-505) with S273A
Procedure: 14-3-3 proteins are known to bind to phosphorylated residues of a target protein. Phosphorylated residues associated with the activity of PPARγ2 are known to be serine 112 and serine 273. Thus, PPARγ2 mutants (PPARγ2 S112A and S273A) with non-phosphorylated serine 112 and serine 273 residues were produced and binding thereof with 14-3-3 proteins was verified through GST-pull down assay.
HEK-293T cells were seeded in a 100 mm plate at a density of 2×10^6 cells per each well, and then transfected with Flag-PPARγ2 (WT) DNA (4 μg), Flag-PPARγ2 (S112A) DNA (4 μg), Flag-PPARγ2(S273A) DNA (4 μg), and mGST-14-3-3β (4 μg) or mGST-14-3-3γ (4 μg) using an E-fection plus reagent (Lugen). As for Flag-PPARγ2 (S112A) DNA and Flag-PPARγ2 (S273A) DNA, DNA fragments amplified through polymerase chain reaction (PCR) were cloned into a Flag-tagged vector. A ratio of DNA to the E-fection plus reagent was 1:2, and this method was performed according to a manufacturer's manual. The corresponding cells were washed with ice-cold PBS and lysed using 500 μl/well of a lysis buffer (150 mM NaCl, 1 mM EDTA, 1% Nonidet P-40, 5% glycerol, 25 mM tris-HCl, pH 7.5, protease inhibitor added), and the lysed cells were centrifuged at 10,000×g and 4° C. for 10 minutes to extract proteins. […]

[3] = 14-3-3β / 14-3-3γ overexpressed according to concentration, FIG. 1B, 1C
[4] = overexpression of 14-3-3 isoform proteins (0.5 μg), 10 μM pioglitazone 24 hours, FIG. 1A

binding with PPARγ2 S273A mutant [2] | Substance | transcriptional activity of PPARγ2 (activity of the aP2 promoter) [1, 3] | transcriptional activity of PPARγ2 (activity of the aP2 promoter) [1, 4]
suppressed | 14-3-3β: 14-3-3 isoform protein, overexpressed by DNA transfection; regulating factor that increases transcriptional activity of PPARγ2 | increased the transcriptional activity of PPARγ2 in a concentration-dependent manner | increased the transcriptional activity of PPARγ2
suppressed | 14-3-3γ: 14-3-3 isoform protein, overexpressed by DNA transfection; regulating factor that decreases transcriptional activity of PPARγ2 | reduced the transcriptional activity of PPARγ2 in a concentration-dependent manner | decreased the transcriptional activity of PPARγ2
